Measurements as given in article PMC9241269.

Biological target: SYT11 (UniProt Q9BT88)
Assay: co-IP with anti-Myc, blot for GFP-SYT11
Conditions: reference: Myc-JNK1 wild type

binding against the reference (sites Y185)	binding against the reference (sites T183)	Substance
lost	–	JNK1 (from UniProt P45983) Myc-JNK1 Y185F
–	lost	JNK1 (from UniProt P45983) Myc-JNK1 T183A
